Test results from paper PMC6737238.

How the values were obtained:
Experiment in all cases: EMSA
Conditions in all cases: EMSA: 0.4 nM biotinylated probe, 10 mM Tris-HCl pH 7.5, 1 mM DTT, 10 mM MgCl2, 400 mM KCl, 0.05% NP-40, 70C 10 min; 5% PAGE, 0.5x TBE
[1] = molecular target: T1, Tar (TK0271 protein) (Thermococcus kodakarensis KOD1) (UniProt Q5JFW7)
T1 sequence: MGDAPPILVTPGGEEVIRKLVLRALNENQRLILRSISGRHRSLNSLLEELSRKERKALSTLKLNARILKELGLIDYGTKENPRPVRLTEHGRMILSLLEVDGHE

[2] = molecular target: T2, TkTrpY (TK1227 protein) (Thermococcus kodakarensis KOD1) (UniProt Q5JGI5)
T2 sequence: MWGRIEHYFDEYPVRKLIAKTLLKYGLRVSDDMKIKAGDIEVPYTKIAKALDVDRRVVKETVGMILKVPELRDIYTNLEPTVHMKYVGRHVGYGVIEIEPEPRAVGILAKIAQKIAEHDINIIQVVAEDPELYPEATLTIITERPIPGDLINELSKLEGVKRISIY

[3] = molecular target: T3, TK0142 protein (Thermococcus kodakarensis KOD1) (UniProt Q5JFH4)
T3 sequence: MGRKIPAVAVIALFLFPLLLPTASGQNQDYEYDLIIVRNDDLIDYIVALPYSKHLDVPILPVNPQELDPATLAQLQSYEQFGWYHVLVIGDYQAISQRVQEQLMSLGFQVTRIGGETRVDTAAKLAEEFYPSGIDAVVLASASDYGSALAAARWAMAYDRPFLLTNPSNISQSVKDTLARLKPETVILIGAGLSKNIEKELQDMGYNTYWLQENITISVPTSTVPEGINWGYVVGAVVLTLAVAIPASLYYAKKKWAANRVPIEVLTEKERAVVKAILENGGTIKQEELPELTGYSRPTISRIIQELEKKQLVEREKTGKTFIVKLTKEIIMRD

[4] = molecular target: T4, TK1210 protein (Thermococcus kodakarensis KOD1) (UniProt Q5JGG7)
T4 sequence: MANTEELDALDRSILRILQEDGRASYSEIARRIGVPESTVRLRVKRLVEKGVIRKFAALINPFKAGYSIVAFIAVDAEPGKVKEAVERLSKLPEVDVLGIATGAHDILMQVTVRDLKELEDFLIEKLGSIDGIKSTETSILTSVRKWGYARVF

[5] = molecular target: T5, TK2229 protein (Thermococcus kodakarensis KOD1) (UniProt Q5JHP9)
T5 sequence: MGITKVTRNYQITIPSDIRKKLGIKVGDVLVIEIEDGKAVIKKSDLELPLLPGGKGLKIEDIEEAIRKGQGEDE

[6] = molecular target: T6, TK2190 protein (Thermococcus kodakarensis KOD1) (UniProt Q5JHK1)
T6 sequence: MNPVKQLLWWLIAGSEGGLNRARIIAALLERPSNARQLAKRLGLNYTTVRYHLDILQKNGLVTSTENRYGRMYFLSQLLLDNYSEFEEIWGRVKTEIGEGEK

[7] = molecular target: T7, TK0888 protein (Thermococcus kodakarensis KOD1) (UniProt Q5JI32)
T7 sequence: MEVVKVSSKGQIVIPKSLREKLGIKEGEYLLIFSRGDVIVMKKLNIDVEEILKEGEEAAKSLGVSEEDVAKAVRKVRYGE

[8] = molecular target: T8, TK1955 protein (Thermococcus kodakarensis KOD1) (UniProt Q5JDN7)
T8 sequence: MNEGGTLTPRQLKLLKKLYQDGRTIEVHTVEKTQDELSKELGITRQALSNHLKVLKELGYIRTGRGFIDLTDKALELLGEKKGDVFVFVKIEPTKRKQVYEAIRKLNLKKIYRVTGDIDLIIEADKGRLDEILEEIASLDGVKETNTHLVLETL

[9] = molecular target: T9, TK1272 protein (Thermococcus kodakarensis KOD1) (UniProt Q5JGN9)
T9 sequence: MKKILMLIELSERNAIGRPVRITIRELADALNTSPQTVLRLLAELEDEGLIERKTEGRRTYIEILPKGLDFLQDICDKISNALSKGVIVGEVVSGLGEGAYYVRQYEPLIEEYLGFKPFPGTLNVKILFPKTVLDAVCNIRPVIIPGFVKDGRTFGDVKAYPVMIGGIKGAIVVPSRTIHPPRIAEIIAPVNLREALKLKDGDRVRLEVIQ

[10] = molecular target: T10, TK1489 protein (Thermococcus kodakarensis KOD1) (UniProt Q5JJD9)
T10 sequence: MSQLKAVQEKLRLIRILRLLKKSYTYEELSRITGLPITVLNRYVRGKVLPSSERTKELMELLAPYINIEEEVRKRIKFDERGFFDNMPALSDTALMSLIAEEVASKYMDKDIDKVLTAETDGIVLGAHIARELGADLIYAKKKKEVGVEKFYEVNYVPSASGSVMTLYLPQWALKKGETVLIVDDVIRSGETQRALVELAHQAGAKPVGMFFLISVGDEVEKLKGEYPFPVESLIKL

[11] = molecular target: T11, TK0271 protein (IVT) (Thermococcus kodakarensis KOD1) (UniProt Q5JFW7)
T11 sequence: T1 sequence

[12] = molecular target: T12, TK0063 protein (Thermococcus kodakarensis KOD1) (UniProt Q5JEG2)
T12 sequence: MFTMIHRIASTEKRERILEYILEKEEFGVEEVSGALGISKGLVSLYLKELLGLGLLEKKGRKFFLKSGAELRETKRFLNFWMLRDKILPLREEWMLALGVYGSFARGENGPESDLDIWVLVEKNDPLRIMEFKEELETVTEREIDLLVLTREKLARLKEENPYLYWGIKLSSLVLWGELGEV

[13] = molecular target: T13, TK1339 protein (Thermococcus kodakarensis KOD1) (UniProt Q5JGU9)
T13 sequence: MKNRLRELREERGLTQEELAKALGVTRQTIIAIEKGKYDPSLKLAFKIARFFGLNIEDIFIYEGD

[14] = molecular target: T14, TK1881 protein (Thermococcus kodakarensis KOD1) (UniProt Q5JEN6)
T14 sequence: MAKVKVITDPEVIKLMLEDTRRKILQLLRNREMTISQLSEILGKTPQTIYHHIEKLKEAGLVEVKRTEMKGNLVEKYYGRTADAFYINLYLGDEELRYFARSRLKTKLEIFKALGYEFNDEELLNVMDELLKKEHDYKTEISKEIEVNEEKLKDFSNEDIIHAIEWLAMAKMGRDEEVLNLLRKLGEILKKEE

[15] = molecular target: T15, TK0169 protein (Thermococcus kodakarensis KOD1) (UniProt Q5JFL2)
T15 sequence: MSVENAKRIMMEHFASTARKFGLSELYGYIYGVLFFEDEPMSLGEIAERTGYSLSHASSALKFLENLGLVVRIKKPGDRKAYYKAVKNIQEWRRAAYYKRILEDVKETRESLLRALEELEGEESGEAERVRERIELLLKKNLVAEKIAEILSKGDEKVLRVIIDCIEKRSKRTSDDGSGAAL

[16] = molecular target: T16, TK1227 protein (IVT) (Thermococcus kodakarensis KOD1) (UniProt Q5JGI5)
T16 sequence: T2 sequence

## TGCGGGCCATCATCATCACCCAATACCTTTGATGTGGGTAAAACATGGGGAGGTTATATACTTTATGTCCCTCAGGGACTTGGCAATGAAACTTTTAAGAATTTCGTCCGATTCTAGAATCAAACTGTAAAAGACCCATATTTTACAATAGCAGCCAGGAAAGAATATTAAACAGAAAATAAGGGATTAAATGCCGTTATCCCCA (double strand) [TK1899 (radA) promoter]
[1]
  binding: binds more weakly

## GACCACCCGCTCAGAAAAGGACGTCGTAAGGACAAGTACACCGTTATTCTCTACCAGGCAACCGTACGAACTATTCAAAGTTCACCCTTTGAAGAAAGGCAAACATTTTTGTTTAACAAAAACACTTTTGTTAGCGCAAACTATTTAAACAACCGTTGTATATCACAGATGGTGATATATATGGTTGAGC (double strand) [TK0705 (GAPN) promoter]
[2]
  binding: binds more weakly

## GCTACTTCCATCCTCCTCTGGAGAAGCTGGAGAATTTCCCGGTCAATCTCGTCTATCCTTCTCCTCAGAATGGCAAGTTCTACAAGATCAGGACTCGATATTGGCGGGACATCACCGTCACCGTTTTGAGCTTGAAGTTCGAAGATTTAACCTTTTGGACAGGTTCACCTAACCATCCCCTCCCAGGCCCTCCTCCTCAGGAG (double strand) [tyr-phe promoter (TK0261)]
[1]
  Kd: binds

## GACTTCGGCTTTCTGATGGTCGGAAGGGACGTGGAAAATGCGAACGAAGCGATAAAAATGTTTTTGGAGGAGGTTAAACGAGGGCCTTAACGCCCTCTCGGTCTTTTTAGCTACTCCCTTGGACACCTCAGCATGTCCAAAGCCTTATATCCCAACTCCCCCTTTTGACACCGGTGAGTTCAAATGGGTGATGGTTTTTGGATTAAGC (double strand) [trp promoter (TK0252)]
[3]
  binding: binds
[4]
  binding: binds
[5]
  binding: binds
[6]
  binding: binds
[7]
  binding: binds
[1]
  Kd: 5 nM
  binding: binds
[8]
  binding: binds
[9]
  binding: binds
[10]
  binding: binds
[11]
  binding: binds
[12]
  binding: binds
[13]
  binding: binds
[14]
  binding: binds
[15]
  binding: binds
[16]
  binding: binds

## GGACGCCTGTTTGTCAAATCGACAAAAATACGCCAGTTTTCACACTGATTTTTAACAGATTGATGAGATGGACGTCCTTTTTTGGGAATTGGACAGGCAAACCTGGCGAATAGTTTAAATAGGGTTGCTGATTCATCCGTCTCCGGTGATCGGTGATGTCCCGCCAATTTATGAAGTCTTCAAACCAGGTGATGTCCCGCCAATGGGTGATGC (double strand) [aro promoter (TK0271)]
[1]
  Kd: binds

## trp promoter (TK0252)
[1]
  Kd: 5 nM
